Drawing on US20230295310A1 (ABCELLERA BIOLOGICS, published 2023), this text covers Kd for 19 molecules.

One experiment addresses T1, human CD3e/g (human, UniProt P07766 23-126; P09693 23-116).
T1 construct: Bought soluble protein; also called hCD3e/g; human CD3e/g (Acro CDD-C52W4)
The experiment is described as follows: SPR (Carterra LSA), mAb on chip. Summed up: (§1)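 Purified mAbs amine-coupled (EDC/S-NHS) at 10 μg/mL in 10 mM NaOAc pH 4.25 onto an HC-30M chip, with benchmark and negative-control mAbs; analyte flowed over the array. Double-referenced sensorgrams fitted globally to a 1:1 Langmuir model for ka, kd and KD.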

The target in another experiment is T2, human CD3e/d (human, UniProt P07766 23-126; P04234 22-105).
T2 construct: Bought soluble protein; also called hCD3e/d; human CD3/ed (Sino CT038-H2508H)
Nature of the experiment: SPR (Carterra LSA), mAb on chip. An outline of the steps:
as §1

T1 sequence (P07766 23-126, chain 1 of 2): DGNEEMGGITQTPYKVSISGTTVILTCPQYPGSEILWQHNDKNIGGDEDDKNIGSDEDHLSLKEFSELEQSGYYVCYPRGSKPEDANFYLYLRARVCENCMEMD
T1 sequence (P09693 23-116, chain 2 of 2): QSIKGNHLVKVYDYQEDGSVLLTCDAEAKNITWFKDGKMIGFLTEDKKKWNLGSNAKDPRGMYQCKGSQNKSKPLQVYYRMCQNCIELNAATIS
T2 sequence (P07766 23-126, chain 1 of 2): as the sequence (P07766 23-126, chain 1 of 2) above
T2 sequence (P04234 22-105, chain 2 of 2): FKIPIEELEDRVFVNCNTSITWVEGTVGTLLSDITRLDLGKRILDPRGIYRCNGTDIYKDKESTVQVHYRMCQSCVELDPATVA

B1: mAb 213 (antibody, V domains shown)
VH: QEQLVESGGGVVQPGGSLRLSCAASGFTFSGYGMHWVRQAPGKGLEWVAIIWYNGRKTYYAESVKGRFTISRDNSKNTLSLQMNSLRVEDTAVYYCTTGKGYNWFDPWGQGTLVTVSS
VL: EIVMTQSPATLSVSPGERATLSCRASQSVSSNLAWYQQKPGQAPRLLIYGASTRATGIPARFSGSGSGTEFTLTISSLQSEDFAVYYCQQFNAWPLTFGGGTKMEIK
notes: VH and VL only
For B1, the results for the Kd with human CD3e/g and with human CD3e/d were 8.6 nM and 13 nM, respectively.

B2: mAb 220 (antibody, V domains shown)
VH: QEQLVESGGGVVQPGGSLRLSCVASGFTFSGYGMHWVRQAPGKGLEWVAIIWYNGRKTYYAESVKGRFTISRDNSKNTLSLQMNSLRVEDTAVYYCTTGKGYNWFDPWGQGTLVTVSS
VL: EIVMTQSPATLSVSPGERATLSCRASQSVSSNLAWYQQKPGQAPRLLIYGASTRATGIPARFSGSGSGTEFTLTISSLQSEDFAVYYCQQFNAWPLTFGGGTKMEIK
notes: VH and VL only
In the case of B2, the Kd with human CD3e/g stood at 11 nM; in the experiment with human CD3e/d, 16 nM.

B3: mAb 225 (antibody, V domains shown)
VH: QEQLVESGGGVVQPGGSLRLSCAASGFKFSGYGMHWVRQAPGKGLEWVAIIWYNGRKTYYAESVKGRFTISRDNSKNTLSLQMNRLRVEDTAVYYCTAGQGYNWFDPWGQGTLVTVSS
VL: EIVMTQSPATLSVSPGERATLSCRASQSVSSNLAWYQQKPGQAPRLLIYGASTRATGIPARFSGSGSGTEFTLTISSLQSEDFAVYYCQQFNAWPLTFGGGTKMEIK
notes: VH and VL only
As for B3, the values for the Kd with human CD3e/g and with human CD3e/d were 6.2 nM and 11 nM, respectively.

B4: mAb 219 (antibody, V domains shown)
VH: QEQLVESGGGVVQPGGSLRLSCAASGFMFSGYGMHWVRQAPGKGLEWVAIIWYNGRKTYYTESVKGRFTISRDNSKNTLSLQMNSLRVEDTAVYYCTAGQGYNWFDPWGQGTLVTVSS
VL: EIVMTQSPATLSVSPGERATLSCRASQSVSSNLAWYQQKPGQAPRLLIYGASTRATGIPARFSGSGSGTEFTLTISSLQSEDFAVYYCQQFNAWPLTFGGGTKMEIK
notes: VH and VL only
For the molecule B4, the results for the Kd in the experiment with human CD3e/g and with human CD3e/d were 6.3 nM and 10 nM, respectively.

B5: mAb 237 (antibody, V domains shown)
VH: EVQLLESGGDLVQPGGSLRLTCAASGFTFRSYAMNWVRQAPGKGLEWVSTISSRGDTTNYADSVKGRFTISRDTSKNTLYLQMDNLRADDTAVYYCSKMFSYYYYYMDVWGKGTTVTVSS
VL: SYELTQPLSVSVALGQTARITCGGNNIGSKDVHWYQQKPGQAPVLVIYRDSNRPSGIPERFSGSNSGNTATLTISRAQAGDEADYYCQVWDSRTAVFGGGTQLTAL
notes: VH and VL only
B5: the Kd in the experiment with human CD3e/g amounted to 5.6 nM; in the experiment with human CD3e/d it was 25 nM.

B6: mAb 263 (antibody, V domains shown)
VH: EVQLLESGGGLVQPGGSLRLSCTPSGITFNNYAMTWVRQAPGKGLEWVSGISVSGGSTYYADSVMGRFTISRDSSKTLYLQMNSLRAEDTAVYYCAKFHSHYYYYMDVWGKGTTVTVSS
VL: SYELTQPLSVSVALGQTARITCGGNNIGSKDVHWYQQKPGQAPVLVIYRDSNRPSGIPERFSGSNSGNTATLTISRAQAGDEADYYCQVWDRRTAVFGGGTQLTAL
notes: VH and VL only
Regarding B6, the Kd was found to be 4.1 nM with human CD3e/g and 9 nM with human CD3e/d.

B7: mAb 264 (antibody, V domains shown)
VH: EVQLLESGGGLVQPGGSLRLSCVASGFTFRSSSMTWVRQAPGKGLEWVSGIRGSGGRTYDAESVKGRFTISRDNSKNTLYLQMNSLRAEDTAEYYCAKLYDYYNDYMDVWGKGTTVTVSS
VL: SYELTQPLSVSVALGQTARITCGGNNIGSKNVHWYQQKPGQAPVLVIYRDSNRPSGIPERFSGSNSGNTATLTISRAQAGDEADYYCQVWDSSTAVFGGGTQLTAL
notes: VH and VL only
For B7, the Kd stood at 7.4 nM in the experiment with human CD3e/g and 32 nM with human CD3e/d.

B8: mAb 251 (antibody, V domains shown)
VH: EVQILESGGGLVQPGGSLRLSCVASGFTFRSYVMSWVRRAPGRGLEWVSGISASGGNTYYADSVKGRFTISRDNSKNTLFLQMNGLRAEDTAVYYCAKLFSYYYYFMDVWGKGTTVTVSS
VL: SYELTQPLSVSVALGQTARITCGGNNIGSKDVHWYQQKPGQAPVLVIYRDSNRPSGIPERFSGSNSGNTATLTISGAQAGDEADYYCQVWDRRTAVFGGGTQLTAL
notes: VH and VL only
On to B8, for which the Kd in the experiment with human CD3e/g was determined as 8.1 nM; with human CD3e/d, 24 nM.

B9: mAb 238 (antibody, V domains shown)
VH: EVQLLESGGDLVQPGGSLRLTCAASGFTFRSYAMNWVRQAPGKGLEWVSTISSRGDTTNYADSVKGRFTISRDTSKNTLYLQMDNLRADDTAVYYCSKMFSYYYYYMDVWGKGTTVTVSS
VL: SYELTQPLSVSVALGQTARITCGGNNIGSKDVHWYQQKPGQAPVLVIYRDSNRPSGIPERFSGSNSGNTATLTISRAQAGDEADYYCQVWDSSTAVFGGGTQLTAL
notes: VH and VL only
B9: the Kd in the experiment with human CD3e/g is 17 nM; in the experiment with human CD3e/d, 59 nM.

B10: mAb 262 (antibody, V domains shown)
VH: EVRLLESGGGLVQPGGSLRLSCAASGFTFRSSSMAWVRQDPGKGLEWVTGIRGSGGRTYDADSVKGRFTISRDNSKNTLYLQMNSLRAEDTAEYYCAKLYDYYNDYMDVWGKGTTVTVSS
VL: SYELTQPLSVSVALGQTARITCGGNNIGSKNVHWYQQKPGQAPVLVIYRDSNRPSGIPERFSGSNSGNTATLTISRAQAGDEADYYCQVWDSSTAVFGGGTQLTAL
notes: VH and VL only
With B10, the results for the Kd in the experiment with human CD3e/g and in the experiment with human CD3e/d were 10 nM and 26 nM, respectively.

B11: mAb 252 (antibody, V domains shown)
VH: EVQILESGGGLVQPGGSLRLSCVASGFTFRSYVMSWVRRAPGRGLEWVSGISTSGGNTYYADSVKGRFTISRDNSKNTLFLQMNGLRAEDTAVYYCAKLFSYYYYFMDVWGKGTTVTVSS
VL: SYELTQPLSVSVALGQTARITCGGNNIGSKDVHWYQQKPGQAPVLVIYRDSNRPSGIPERFSGSNSGNTATLTISGAQAGDEADYYCQVWDRRTAVFGGGTQLTAL
notes: VH and VL only
Turning to B11, the Kd with human CD3e/g was 13 nM; with human CD3e/d, 30 nM.

B12: mAb 261 (antibody, V domains shown)
VH: EVQLLESGGGFMQPGGSLRLSCAVSGFTFRTSSMAWVRQAPGKGLEWVSGIRGSGGRTYDAESVKGRFTISRDISKNTLYLQMNNLRAEDTAEYYCAKLYDYYNDFMDVWGKGTTVIVSA
VL: SYELTQPLSVSVALGQTARITCGGNNIGSKNVHWYQQKPGQAPVLVIYRDSNRPSGIPERFSGSNSGNTATLTISRAQAGDEADYYCQVWDSSTAVFGGGTQLTAL
notes: VH and VL only
With B12, the Kd in the experiment with human CD3e/g worked out at 3 nM; in the experiment with human CD3e/d, 16 nM.

B13: mAb 259 (antibody, V domains shown)
VH: EVLLLESGGGLVQPGGSLRLSCAASGFTFRSSSMTWVRQAPGKGLEWVSGIRGSGGRTYDAESVKGRFTISRDISKNTLYLQMNSVRAEDTAEYYCAKLYDYYNDYMDVWGKGTTVTVSS
VL: SYELTQPLSVSVALGQTARITCGGNNIGSKNVHWYQQKPGQAPVLVIYRDSNRPSGIPERFSGSNSGNTATLTISRAQAGDEADYYCQVWDSSTAVFGGGTQLTAL
notes: VH and VL only
As for B13, the figures for the Kd in the experiment with human CD3e/g and with human CD3e/d were 13 nM and 63 nM, respectively.

B14: mAb 260 (antibody, V domains shown)
VH: EVQLLESGGGLVQPGGSLRLSCVASGFTFRSSSMAWVRQAPGKGLEWVSGIRGSGGRTYDAESVKGRFIISRDTSKNTLYLQMNSLRGEDTAEYFCAKLYDYYNDYMDVWGKGTTVTVSS
VL: SYELTQPLSVSVALGQTARITCGGNNIGSKNVHWYQQKPGQAPVLVIYRDSNRPSGIPERFSGSNSGNTATLTISRAQAGDEADYYCQVWDSSTAVFGGGTQLTAL
notes: VH and VL only
B14: the Kd was found to be 4.2 nM with human CD3e/g and 28 nM in the experiment with human CD3e/d.

B15: mAb 68 (antibody, V domains shown)
VH: EVQLVDSGGGLVQPGGSLRLSCSGSGFTFSSYWMSWVRQAPGKGLEWVANIKQDGSQKYYVDSVKGRFTISRDNVKNSLYLQMNSLRVEDTAVYYCARDESSSWYWYFDLWGRGTLVTVSS
VL: DIQMTQSPSTLSASVGDRVTLTCRASQNIVKWLAWYQQKPGKAPKLLIYKASSLESGVPSWFSGSGSGTEFTLTINSLQPDDFATYYCQQYYTYSRTFGQGTKVEIK
notes: VH and VL only
On to B15, for which the Kd stood at 99.9 nM with human CD3e/g and 46.7 nM with human CD3e/d.

B16: mAb 229 (antibody, V domains shown)
VH: QEQLVESGGGVVQPGRSLRLSCAASGFTFSSYGMHWVRQAPGKGLEWVAIIYYNGKKKDYADSVKGRFTISRDNSKNTLYLQMNSLRAEDTAVYYCARGLGYNWFDPWGQGTLVTVSS
VL: EIVLTQSPDFQSVTPKEKVTITCRASQSIGSSLHWYQQKPDQSPKLLIKYASQSFSGVPSRFSGSGSGTDFTLTINSLEAEDAATYYCHQSSSLPYTFGQGTKLEIK
notes: VH and VL only
With B16, the Kd stood at 47 nM with human CD3e/g and 22 nM with human CD3e/d.

B17: mAb 85 (antibody, V domains shown)
VH: QVQLVQSGAEVKKPGASVKVSCKASGYTVTGYYMHWVRQAPGQGLEWMGWINPNSGGTNFAQNFQGRVTMTRDTSISTFYMDLNRLRSDDTAVYYCARGGAPVSYWFFDLWGRGTLVTVSS
VL: DIQMTQSPSSLSASVGDRVTITCRASQSISRYLNWYQQKPGKAPKVLIYNTSSLKSGVPSRFSGSGSGTDFTLTISSLQPEDFGTFYCQQSHSTPFTFGPGTKVDIK
notes: VH and VL only
With B17, the Kd in the experiment with human CD3e/g was 102 nM; in the experiment with human CD3e/d, 117 nM.

B18: mAb 66 (antibody, V domains shown)
VH: QVQLVQSGAEVKKPGASVKVSCKASGYTVTGYYMHWVRQAPGQGLEWMGWINPNSGGTNFAQNFQGRVTMTRDTSISTFYMDLSRLRSDDTAVYYCARGGAPVSYWFFDLWGRGTLVTVSS
VL: DIQMTQSPSSLSASVGDRVTITCRASQSISRYLNWYQQKPGKAPKVLIYNTSSLKSGVPSRFSGSGSGTDFTLTISSLQPEDFATLYCQQSHSTPFTFGPGTKVDIK
notes: VH and VL only
For the molecule B18, the Kd with human CD3e/g was 125 nM; in the experiment with human CD3e/d, 149 nM.

B19: mAb 79 (antibody, V domains shown)
VH: QVQLVQSGAEVKKPGASVKVSCKASGYIVTGYYMHWVRQAPGHGLEWMGWINPNSGGTNFAQNFQGRVTMTRDTSISTFYMDLNRLTSDDTAVYYCARGGAPVSYWFFDLWGRGTLVTVSS
VL: DIQMTQSPSSLSASVGDRVTITCRASQNINSYLNWYHQKPGKAPKVLIYNTSTLKSGVPSRFSGSGSGTYFTLTISSLQPEDFATFYCQQSHSTPFTFGPGTKVDIK
notes: VH and VL only
On to B19, for which the dissociation constant Kd with human CD3e/g came out at 74.8 nM; with human CD3e/d it was 124 nM.
